Our source for the Kd and binding signal (% reduction vs S8) values is PMC6312627.

One may read the pKd as −log10 of the Kd, conventionally taken in molar units.

In data set [1] the target is streptavidin (MST) (UniProt P22629). Nature of the data set: MST. The following applies: PBSMCT selection buffer (PBS with Mg2+, CaCl2, 0.01% Tween 20; full composition not in material), pH 7.4 or pH 5.2 (HCl); bead assays at RT, MST at 25 C with ….
Data set [2] addresses streptavidin-phycoerythrin (SA-PE) (UniProt P22629). Nature of the data set: bead-based flow cytometry. As to conditions: PBSMCT selection buffer (PBS with Mg2+, CaCl2, 0.01% Tween 20; full composition not in material), pH 7.4 or pH 5.2 (HCl); bead assays at RT, MST at 25 C with …. (In general: Flow cytometry measures light scatter and fluorescence of single cells or particles in a stream.)

For data set [3], the target named is streptavidin (MST) (UniProt P22629). Nature of the data set: MST. The following applies: PBSMCT selection buffer (PBS with Mg2+, CaCl2, 0.01% Tween 20; full composition not in material), pH 7.4 or pH 5.2 (HCl); bead assays at RT, MST at 25 C with …. The source holds these as a separate data set.
For data set [4] the target is unchanged. Nature of the data set: cited. As to conditions: PBSMCT selection buffer (PBS with Mg2+, CaCl2, 0.01% Tween 20; full composition not in material), pH 7.4 or pH 5.2 (HCl); bead assays at RT, MST at 25 C with …; cited from earlier work.
For data set [5], the target named is streptavidin-phycoerythrin (SA-PE) (UniProt P22629). Nature of the data set: bead-based flow cytometry. The following applies: PBSMCT selection buffer (PBS with Mg2+, CaCl2, 0.01% Tween 20; full composition not in material), pH 7.4 or pH 5.2 (HCl); bead assays at RT, MST at 25 C with …. The source holds these as a separate data set.

pKd: −log10 of the molar value.

For the sequence “ATACCAGCTTATTCAATTATTGACCGCTGTGTGACGCAACACTCAATTCTTGGATCTCGCTGCACACAGATAGTAAGTGCAATCT [S8]”, the figures for the negative-log Kd (pKd) (with streptavidin (MST) [1]; in data set [2]) were 8.00 and 6.95, respectively.

Take “ATACCAGCTTATTCAATTATTGACCGCTGTGTGACGCAACACTCAATACCTTCTCAACGTTCTCTGTAGATAGTAAGTGCAATCT [S3]”: in data set [2], the pKd was 7.62.

In the case of “ATACCAGCTTATTCAATTATTGACCGCTGTGTGACGCAACACTCAATTCTTGGATCTCGCTTCACACAGATAGTAAGTGCAATCT [S8 T62]”, in data set [2], the binding signal (% reduction vs S8) came to 65.

For “ATACCAGCTTATTCAATTATTGACCGCTGTGTGACGCAACACTCAATTCTTGGATCTCGCGGCACACAGATAGTAAGTGCAATCT [S8 G61]”, in data set [2], the binding signal (% reduction vs S8) is 75.

For ATTGACCGCTGTGTGACGCAACACTCAAT [SBA29], the pKd in the data set with streptavidin (MST) [1] is 8.21; in the data set with streptavidin (MST) [3], 7.57; in the data set with streptavidin (MST) [4], 7.40; in data set [2], 7.98; in data set [5] it was 8.46.
